# Measured values from the supplement of paper PMC10266784.
# B1: library; numbered along this chain (parent)
# chain: MAAAAAAAAEQQSSNGPVKKSMREKAVERRSVNKEHNSNFKAGYIPIDEDRLHKTGLRGRKGNLAICVIILLFILAVINLIITLVIWAVIRIGPNGCDSMEFHESGLLRFKQVSDMGVIHPLYKSTVGGRRNENLVITGNNQPIVFQQGTTKLSVENNKTSITSDIGMQFFDPRTQNILFSTDYETHEFHLPSGVKSLNVQKASTERITSNATSDLNIKVDGRAIVRGNEGVFIMGKTIEFHMGGNMELKAENSIILNGSVMVSTTRLPSSSSGDQLGSGDWVRYKLCMCADGTLFKVQVTSQNMGCQISDNPCGNTH
# Variants of: B1
# Assay: SGCB cell-surface expression functional score (HA stain, bin4 vs bin1, normalised to synonymous) (log10 ratio); higher = more cell-surface SGCB (functional)
# Outline: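 HEK293 cells stably expressing alpha-, gamma- and delta-sarcoglycan received codon-saturation libraries of HA-tagged, YFP-fused human beta-sarcoglycan by lentiviral transduction at MOI <0.1, performed in duplicate. Cells positive for YFP were sorted after 72 hours and cultured for 5–7 days, then stained on ice with Alexa Fluor 647 anti-HA and fixed. Fixed cells were sorted into four 5% intensity bins and amplicon-sequenced, and the log ratio of highest-bin to lowest-bin variant frequency, as a median over codons and transductions, gives the functional score. Per section, synonymous variants were scaled to mean 0, SD 0.5.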
row,Variant,SGCB cell-surface expression functional score (log10)
1,MAAAAAAAAEQQSSNGPVKKSMREKAVERRSVNKEHNSNFKAGYIPIDEDRLHKTGLRGRKGNLAICVIILLFILAVINLIITLVIWAVIRIGPNGCDSMEFHESGLLRFKQVSDMGVIHPLYKSTVGGRRNENLVITGNNQPIVFQQGTTKLSVENNKTSITSDIGMQFFDPRTQNILFSTDYETHEFHLPSGVKSLNVQKASTERITSNATSDLNIKVDGRAIVRGNEGVFIMGKTIEFHMGGNMELKAENYIILNGSVMVSTTRLPSSSSGDQLGSGDWVRYKLCMCADGTLFKVQVTSQNMGCQISDNPCGNTH [S254Y],0.7
2,MAAAAAAAAEQQSSNGPVKKSMREKAVERRSVNKEHNSNFKAGYIPIDEDRLHKTGLRGRKGNLAICVIILLFILAVINLIITLVIWAVIRIGPNGCDSMEFHESGLLRFKQVSDMGVIHPLYKSTVGGRRNENLVITGNNQPIVFQQGTTKLSVENNKTSITSDIGMQFFDPRTQNILFSTDYETHEFHLPSGVKSLNVQKASTERITSNATSDLNIKVDGRAIVRGNEGVFIMGKTIEFHMGGNMELKAENWIILNGSVMVSTTRLPSSSSGDQLGSGDWVRYKLCMCADGTLFKVQVTSQNMGCQISDNPCGNTH [S254W],0.38
3,MAAAAAAAAEQQSSNGPVKKSMREKAVERRSVNKEHNSNFKAGYIPIDEDRLHKTGLRGRKGNLAICVIILLFILAVINLIITLVIWAVIRIGPNGCDSMEFHESGLLRFKQVSDMGVIHPLYKSTVGGRRNENLVITGNNQPIVFQQGTTKLSVENNKTSITSDIGMQFFDPRTQNILFSTDYETHEFHLPSGVKSLNVQKASTERITSNATSDLNIKVDGRAIVRGNEGVFIMGKTIEFHMGGNMELKAENSTILNGSVMVSTTRLPSSSSGDQLGSGDWVRYKLCMCADGTLFKVQVTSQNMGCQISDNPCGNTH [I255T],-0.76
4,MAAAAAAAAEQQSSNGPVKKSMREKAVERRSVNKEHNSNFKAGYIPIDEDRLHKTGLRGRKGNLAICVIILLFILAVINLIITLVIWAVIRIGPNGCDSMEFHESGLLRFKQVSDMGVIHPLYKSTVGGRRNENLVITGNNQPIVFQQGTTKLSVENNKTSITSDIGMQFFDPRTQNILFSTDYETHEFHLPSGVKSLNVQKASTERITSNATSDLNIKVDGRAIVRGNEGVFIMGKTIEFHMGGNMELKAENSPILNGSVMVSTTRLPSSSSGDQLGSGDWVRYKLCMCADGTLFKVQVTSQNMGCQISDNPCGNTH [I255P],-0.82
5,MAAAAAAAAEQQSSNGPVKKSMREKAVERRSVNKEHNSNFKAGYIPIDEDRLHKTGLRGRKGNLAICVIILLFILAVINLIITLVIWAVIRIGPNGCDSMEFHESGLLRFKQVSDMGVIHPLYKSTVGGRRNENLVITGNNQPIVFQQGTTKLSVENNKTSITSDIGMQFFDPRTQNILFSTDYETHEFHLPSGVKSLNVQKASTERITSNATSDLNIKVDGRAIVRGNEGVFIMGKTIEFHMGGNMELKAENSLILNGSVMVSTTRLPSSSSGDQLGSGDWVRYKLCMCADGTLFKVQVTSQNMGCQISDNPCGNTH [I255L],0.57
6,MAAAAAAAAEQQSSNGPVKKSMREKAVERRSVNKEHNSNFKAGYIPIDEDRLHKTGLRGRKGNLAICVIILLFILAVINLIITLVIWAVIRIGPNGCDSMEFHESGLLRFKQVSDMGVIHPLYKSTVGGRRNENLVITGNNQPIVFQQGTTKLSVENNKTSITSDIGMQFFDPRTQNILFSTDYETHEFHLPSGVKSLNVQKASTERITSNATSDLNIKVDGRAIVRGNEGVFIMGKTIEFHMGGNMELKAENSFILNGSVMVSTTRLPSSSSGDQLGSGDWVRYKLCMCADGTLFKVQVTSQNMGCQISDNPCGNTH [I255F],0.37
7,MAAAAAAAAEQQSSNGPVKKSMREKAVERRSVNKEHNSNFKAGYIPIDEDRLHKTGLRGRKGNLAICVIILLFILAVINLIITLVIWAVIRIGPNGCDSMEFHESGLLRFKQVSDMGVIHPLYKSTVGGRRNENLVITGNNQPIVFQQGTTKLSVENNKTSITSDIGMQFFDPRTQNILFSTDYETHEFHLPSGVKSLNVQKASTERITSNATSDLNIKVDGRAIVRGNEGVFIMGKTIEFHMGGNMELKAENSAILNGSVMVSTTRLPSSSSGDQLGSGDWVRYKLCMCADGTLFKVQVTSQNMGCQISDNPCGNTH [I255A],0.2
8,MAAAAAAAAEQQSSNGPVKKSMREKAVERRSVNKEHNSNFKAGYIPIDEDRLHKTGLRGRKGNLAICVIILLFILAVINLIITLVIWAVIRIGPNGCDSMEFHESGLLRFKQVSDMGVIHPLYKSTVGGRRNENLVITGNNQPIVFQQGTTKLSVENNKTSITSDIGMQFFDPRTQNILFSTDYETHEFHLPSGVKSLNVQKASTERITSNATSDLNIKVDGRAIVRGNEGVFIMGKTIEFHMGGNMELKAENSHILNGSVMVSTTRLPSSSSGDQLGSGDWVRYKLCMCADGTLFKVQVTSQNMGCQISDNPCGNTH [I255H],-1.4
9,MAAAAAAAAEQQSSNGPVKKSMREKAVERRSVNKEHNSNFKAGYIPIDEDRLHKTGLRGRKGNLAICVIILLFILAVINLIITLVIWAVIRIGPNGCDSMEFHESGLLRFKQVSDMGVIHPLYKSTVGGRRNENLVITGNNQPIVFQQGTTKLSVENNKTSITSDIGMQFFDPRTQNILFSTDYETHEFHLPSGVKSLNVQKASTERITSNATSDLNIKVDGRAIVRGNEGVFIMGKTIEFHMGGNMELKAENSKILNGSVMVSTTRLPSSSSGDQLGSGDWVRYKLCMCADGTLFKVQVTSQNMGCQISDNPCGNTH [I255K],-0.13
